Measured values from patent publication US20160058880A1 (LIFE SCIENCES RESEARCH PARTNERS VZW, published 2016).
Numbered stars: 1 amine (or outer) side, 2 acyl side, 3 side chain; on linkers, the order of the positions; unused ones are H or OH. Square brackets hold non-standard residues; d marks the D form. * marks the point of attachment. Doxorubicin(3'-N) = COc1cccc2c1C(=O)c1c(O)c3c(c(O)c1C2=O)C[C@@](O)(C(=O)CO)C[C@@H]3O[C@H]1C[C@H](N*)[C@H](O)[C@H](C)O1; Phosphonoacetyl = O=C(CP(=O)(O)O)*; Suc = O=C(CCC(=O)[*:2])[*:1]; βAla = NCCC(=O)O

What was measured:
[1] = biological target: TOP (recombinant human thimet oligopeptidase, R&D systems, Ref 3439-ZN) (human, UniProt P52888 1-689, limits assumed); experiment: cell-based or functional assay
Chain of TOP (recombinant human thimet oligopeptidase, R&D systems, Ref 3439-ZN) (P52888 whole entry): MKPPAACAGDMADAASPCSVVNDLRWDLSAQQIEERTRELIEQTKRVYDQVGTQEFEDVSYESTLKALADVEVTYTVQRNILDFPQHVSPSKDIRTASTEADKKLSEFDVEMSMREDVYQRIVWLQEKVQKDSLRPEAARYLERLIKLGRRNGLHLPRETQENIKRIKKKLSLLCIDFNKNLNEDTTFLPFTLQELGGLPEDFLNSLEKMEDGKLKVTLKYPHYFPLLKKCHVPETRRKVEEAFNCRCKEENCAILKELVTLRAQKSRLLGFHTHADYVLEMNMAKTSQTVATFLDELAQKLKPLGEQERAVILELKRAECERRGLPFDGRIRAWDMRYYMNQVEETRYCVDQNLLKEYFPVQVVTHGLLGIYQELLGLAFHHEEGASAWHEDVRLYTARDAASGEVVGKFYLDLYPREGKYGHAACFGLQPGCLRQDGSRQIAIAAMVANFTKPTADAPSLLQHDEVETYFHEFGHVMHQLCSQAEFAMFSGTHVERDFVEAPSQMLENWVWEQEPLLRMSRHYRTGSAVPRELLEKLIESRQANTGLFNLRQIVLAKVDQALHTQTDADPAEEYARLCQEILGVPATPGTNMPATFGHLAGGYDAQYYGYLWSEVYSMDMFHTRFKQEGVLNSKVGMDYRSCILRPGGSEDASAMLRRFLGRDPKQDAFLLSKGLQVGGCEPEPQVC

[2] = biological target: CD10 (recombinant human neprilysin, R&D systems, Ref 1182-ZN) (human, UniProt P08473 53-750); experiment: cell-based or functional assay
Chain of CD10 (recombinant human neprilysin, R&D systems, Ref 1182-ZN) (P08473 53-750 limits assumed): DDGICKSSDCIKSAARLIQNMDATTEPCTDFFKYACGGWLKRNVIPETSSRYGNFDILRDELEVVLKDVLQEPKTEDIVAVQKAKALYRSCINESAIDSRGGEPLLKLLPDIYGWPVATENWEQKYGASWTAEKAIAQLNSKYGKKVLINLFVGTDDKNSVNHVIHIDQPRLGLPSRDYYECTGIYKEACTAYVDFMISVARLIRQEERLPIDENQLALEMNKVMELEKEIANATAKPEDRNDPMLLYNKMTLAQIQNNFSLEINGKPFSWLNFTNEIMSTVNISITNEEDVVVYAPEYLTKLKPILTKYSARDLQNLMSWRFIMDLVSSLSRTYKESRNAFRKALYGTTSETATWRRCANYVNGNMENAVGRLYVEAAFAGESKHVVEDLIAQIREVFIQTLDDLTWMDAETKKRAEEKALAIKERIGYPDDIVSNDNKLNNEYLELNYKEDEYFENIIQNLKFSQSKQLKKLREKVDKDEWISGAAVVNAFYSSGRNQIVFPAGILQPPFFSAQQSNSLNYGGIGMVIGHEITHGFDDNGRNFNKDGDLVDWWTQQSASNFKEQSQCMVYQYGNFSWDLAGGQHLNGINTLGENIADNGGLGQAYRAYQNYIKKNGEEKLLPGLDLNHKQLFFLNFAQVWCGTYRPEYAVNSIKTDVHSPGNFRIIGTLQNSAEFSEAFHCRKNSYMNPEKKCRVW

B1: PhAc-KLGP-doxorubicin (peptide)
peptide: Phosphonoacetyl-KLGP-{Doxorubicin(3'-N)}
SMILES: COc1cccc2c1C(=O)c1c(O)c3c(c(O)c1C2=O)C[C@@](O)(C(=O)CO)C[C@@H]3O[C@H]1C[C@H](NC(=O)[C@@H]2CCCN2C(=O)CNC(=O)[C@H](CC(C)C)NC(=O)[C@H](CCCCN)NC(=O)CP(=O)(O)O)[C@H](O)[C@H](C)O1
[1]
  % Metabolites released after 3 h with TOP 5 nM (GP-Dox): 31%

B2: PhAc-AIGP-doxorubicin (peptide)
peptide: Phosphonoacetyl-AIGP-{Doxorubicin(3'-N)}
SMILES: CC[C@H](C)[C@H](NC(=O)[C@H](C)NC(=O)CP(=O)(O)O)C(=O)NCC(=O)N1CCC[C@H]1C(=O)N[C@H]1C[C@H](O[C@H]2C[C@](O)(C(=O)CO)Cc3c(O)c4c(c(O)c32)C(=O)c2c(OC)cccc2C4=O)O[C@@H](C)[C@H]1O
[1]
  % Metabolites released after 3 h with TOP 5 nM (GP-Dox): < 5%

B3: PhAc-ALGP-doxorubicin (peptide)
peptide: Phosphonoacetyl-ALGP-{Doxorubicin(3'-N)}
SMILES: COc1cccc2c1C(=O)c1c(O)c3c(c(O)c1C2=O)C[C@@](O)(C(=O)CO)C[C@@H]3O[C@H]1C[C@H](NC(=O)[C@@H]2CCCN2C(=O)CNC(=O)[C@H](CC(C)C)NC(=O)[C@H](C)NC(=O)CP(=O)(O)O)[C@H](O)[C@H](C)O1
[1]
  % Metabolites released after 3 h with TOP 5 nM (GP-Dox): 72%

B4: Succinyl-βALPF-doxorubicin (peptide)
peptide: Suc-[βAla]LPF-doxorubicin
[1]
  % Metabolites released after 3 h with TOP 5 nM: 0%

B5: PhAc-DLGP-doxorubicin (peptide)
peptide: Phosphonoacetyl-DLGP-{Doxorubicin(3'-N)}
SMILES: COc1cccc2c1C(=O)c1c(O)c3c(c(O)c1C2=O)C[C@@](O)(C(=O)CO)C[C@@H]3O[C@H]1C[C@H](NC(=O)[C@@H]2CCCN2C(=O)CNC(=O)[C@H](CC(C)C)NC(=O)[C@H](CC(=O)O)NC(=O)CP(=O)(O)O)[C@H](O)[C@H](C)O1
[2]
  % Metabolites released after 3 h with CD10 10 nM: 0%
[1]
  % Metabolites released after 3 h with TOP 5 nM: 0%

B6: PhAc-TSGP-doxorubicin (peptide)
peptide: Phosphonoacetyl-TSGP-{Doxorubicin(3'-N)}
SMILES: COc1cccc2c1C(=O)c1c(O)c3c(c(O)c1C2=O)C[C@@](O)(C(=O)CO)C[C@@H]3O[C@H]1C[C@H](NC(=O)[C@@H]2CCCN2C(=O)CNC(=O)[C@H](CO)NC(=O)[C@@H](NC(=O)CP(=O)(O)O)[C@@H](C)O)[C@H](O)[C@H](C)O1
[2]
  % Metabolites released after 3 h with CD10 10 nM: 0%
[1]
  % Metabolites released after 3 h with TOP 5 nM (GP-Dox): 38%

B7: PhAc-ALPF-doxorubicin (peptide)
peptide: Phosphonoacetyl-ALPF-{Doxorubicin(3'-N)}
SMILES: COc1cccc2c1C(=O)c1c(O)c3c(c(O)c1C2=O)C[C@@](O)(C(=O)CO)C[C@@H]3O[C@H]1C[C@H](NC(=O)[C@H](Cc2ccccc2)NC(=O)[C@@H]2CCCN2C(=O)[C@H](CC(C)C)NC(=O)[C@H](C)NC(=O)CP(=O)(O)O)[C@H](O)[C@H](C)O1
[2]
  % Metabolites released after 3 h with CD10 10 nM: 0%

B8: PhAc-GPGP-doxorubicin (peptide)
peptide: Phosphonoacetyl-GPGP-{Doxorubicin(3'-N)}
SMILES: COc1cccc2c1C(=O)c1c(O)c3c(c(O)c1C2=O)C[C@@](O)(C(=O)CO)C[C@@H]3O[C@H]1C[C@H](NC(=O)[C@@H]2CCCN2C(=O)CNC(=O)[C@@H]2CCCN2C(=O)CNC(=O)CP(=O)(O)O)[C@H](O)[C@H](C)O1
[2]
  % Metabolites released after 3 h with CD10 10 nM: 0%
[1]
  % Metabolites released after 3 h with TOP 5 nM: 0%
